Assay results published in paper doi:10.1101/786475 (bioRxiv, 2019).

Experiments:
Experiment in all cases: peptide or protein array
[1] = target: T1, Gpp2p (spotted on the yeast ProtoArray) (S. cerevisiae, UniProt P40106 1-250)
T1 sequence (looked up): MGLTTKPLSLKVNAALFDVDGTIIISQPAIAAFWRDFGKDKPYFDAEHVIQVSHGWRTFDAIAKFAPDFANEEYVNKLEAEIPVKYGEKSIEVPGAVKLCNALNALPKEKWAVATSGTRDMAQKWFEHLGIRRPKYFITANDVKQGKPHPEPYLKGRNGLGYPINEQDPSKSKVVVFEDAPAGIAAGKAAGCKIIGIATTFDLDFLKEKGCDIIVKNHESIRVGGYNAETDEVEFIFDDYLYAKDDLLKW

[2] = target: Mal32p (spotted on the yeast ProtoArray) (S. cerevisiae, UniProt P38158 1-584)
Mal32p (spotted on the yeast ProtoArray), sequence (P38158 whole entry): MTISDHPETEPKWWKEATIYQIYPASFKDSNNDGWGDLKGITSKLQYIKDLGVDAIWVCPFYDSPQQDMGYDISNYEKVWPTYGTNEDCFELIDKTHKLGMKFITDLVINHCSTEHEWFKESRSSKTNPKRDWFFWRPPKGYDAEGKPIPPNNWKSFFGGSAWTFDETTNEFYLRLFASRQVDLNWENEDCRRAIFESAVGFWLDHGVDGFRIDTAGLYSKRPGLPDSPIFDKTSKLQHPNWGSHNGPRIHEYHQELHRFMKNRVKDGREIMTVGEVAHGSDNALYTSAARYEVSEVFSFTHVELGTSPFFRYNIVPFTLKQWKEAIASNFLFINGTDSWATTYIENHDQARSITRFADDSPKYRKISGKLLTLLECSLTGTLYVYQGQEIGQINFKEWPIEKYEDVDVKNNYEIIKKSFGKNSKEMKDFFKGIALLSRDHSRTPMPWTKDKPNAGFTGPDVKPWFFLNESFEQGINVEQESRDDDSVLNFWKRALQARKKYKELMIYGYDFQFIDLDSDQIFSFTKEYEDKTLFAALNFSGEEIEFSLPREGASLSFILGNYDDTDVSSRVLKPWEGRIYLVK

[3] = target: T2, Cap2p (spotted on the yeast ProtoArray) (S. cerevisiae, UniProt P13517 1-287)
T2 sequence (looked up): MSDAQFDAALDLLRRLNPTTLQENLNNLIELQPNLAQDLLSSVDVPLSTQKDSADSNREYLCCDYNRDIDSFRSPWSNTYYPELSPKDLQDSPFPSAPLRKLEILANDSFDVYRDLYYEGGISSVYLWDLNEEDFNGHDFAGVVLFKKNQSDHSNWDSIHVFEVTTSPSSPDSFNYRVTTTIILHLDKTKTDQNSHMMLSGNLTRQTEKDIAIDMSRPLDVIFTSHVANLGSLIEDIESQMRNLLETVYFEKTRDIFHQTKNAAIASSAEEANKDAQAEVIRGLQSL

[4] = target: T3, Erg20p (spotted on the yeast ProtoArray) (S. cerevisiae, UniProt P08524 1-352)
T3 sequence (looked up): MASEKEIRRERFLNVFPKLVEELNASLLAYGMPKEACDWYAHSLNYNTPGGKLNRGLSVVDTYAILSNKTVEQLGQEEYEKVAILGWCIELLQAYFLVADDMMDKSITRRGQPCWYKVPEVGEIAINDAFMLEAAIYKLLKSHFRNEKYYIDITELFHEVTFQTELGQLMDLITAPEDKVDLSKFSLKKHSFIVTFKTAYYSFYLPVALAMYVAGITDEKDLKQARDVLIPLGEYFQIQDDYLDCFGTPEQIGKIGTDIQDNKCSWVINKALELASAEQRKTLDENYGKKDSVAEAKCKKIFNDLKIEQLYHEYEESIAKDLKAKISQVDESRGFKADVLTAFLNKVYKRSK

[5] = target: T4, Pol30p (spotted on the yeast ProtoArray) (S. cerevisiae, UniProt P15873 1-258)
T4 sequence (looked up): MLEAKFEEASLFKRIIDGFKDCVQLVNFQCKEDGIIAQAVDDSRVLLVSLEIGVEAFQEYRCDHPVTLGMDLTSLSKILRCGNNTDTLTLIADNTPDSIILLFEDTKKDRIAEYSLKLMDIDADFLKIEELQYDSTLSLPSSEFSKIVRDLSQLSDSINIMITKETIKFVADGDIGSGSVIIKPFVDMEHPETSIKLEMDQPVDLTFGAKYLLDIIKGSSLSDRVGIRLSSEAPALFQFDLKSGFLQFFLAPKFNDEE

[6] = target: T5, Cia1p (spotted on the yeast ProtoArray) (S. cerevisiae, UniProt Q05583 1-330)
T5 sequence (looked up): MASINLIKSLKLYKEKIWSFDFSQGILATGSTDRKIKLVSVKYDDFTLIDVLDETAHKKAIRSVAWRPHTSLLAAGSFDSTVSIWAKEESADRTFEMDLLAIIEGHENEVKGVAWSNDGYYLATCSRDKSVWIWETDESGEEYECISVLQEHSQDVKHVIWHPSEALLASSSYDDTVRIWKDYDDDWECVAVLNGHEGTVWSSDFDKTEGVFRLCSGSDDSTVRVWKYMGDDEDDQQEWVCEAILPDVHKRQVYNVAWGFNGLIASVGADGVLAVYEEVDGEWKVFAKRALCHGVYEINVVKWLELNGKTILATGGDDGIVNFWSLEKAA

[7] = target: Frd1p (spotted on the yeast ProtoArray) (S. cerevisiae, UniProt P32614 1-470)
Frd1p (spotted on the yeast ProtoArray), sequence (P32614 whole entry): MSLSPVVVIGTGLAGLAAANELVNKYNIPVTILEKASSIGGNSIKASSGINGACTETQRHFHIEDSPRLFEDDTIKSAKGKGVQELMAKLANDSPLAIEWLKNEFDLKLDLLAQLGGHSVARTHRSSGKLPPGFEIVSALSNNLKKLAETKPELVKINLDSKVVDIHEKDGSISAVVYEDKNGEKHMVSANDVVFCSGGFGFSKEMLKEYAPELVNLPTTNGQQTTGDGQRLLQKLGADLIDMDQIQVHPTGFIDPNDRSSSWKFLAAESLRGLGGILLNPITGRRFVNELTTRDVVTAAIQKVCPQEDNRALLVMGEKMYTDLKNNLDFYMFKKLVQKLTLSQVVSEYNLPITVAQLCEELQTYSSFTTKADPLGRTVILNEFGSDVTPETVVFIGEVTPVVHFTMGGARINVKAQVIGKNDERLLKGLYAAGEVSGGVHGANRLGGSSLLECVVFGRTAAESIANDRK

- binding result [1]: binds
- binding result [2]: binds
- binding result [3]: binds
- binding result [4]: binds
- binding result [5]: binds
- binding result [6]: binds
- binding result [7]: binds
B1: purified and biotinylated cytoplasmic domain of the Msb2p protein (HIS-Msb2p^CYT) (domain or fragment, S. cerevisiae, UniProt P32334 1207-1306, looked up)
chain: AFKYIIRRRIQSQEIIKNPEISSISSSEFGGEKNYNNEKRMSVQESITQSMRIQNWMDDSYYGHGLTNNDSTPTRHNTSSSIPKISRPIASQNSLGWNEV
modifications: biotinylated in vitro (sites not given)
